Ends that are not written are not given here.
How the values were obtained:
Test in all cases: fluorescence polarisation
[1] = molecular target: Rabbit skeletal muscle actin (unlabeled actin monomers) (rabbit) (UniProt P68135)
[2] = molecular target: profilin-1 T109M (ALS-associated variant) (UniProt P07737 1-140, T109M)
[3] = molecular target: profilin-1 G118V (ALS-associated variant) (UniProt P07737 1-140, G118V)
[4] = molecular target: profilin-1 R136W (ALS-associated variant) (UniProt P07737 1-140, R136W)
Chain of profilin-1 R136W (ALS-associated variant) (P07737 whole entry R136W): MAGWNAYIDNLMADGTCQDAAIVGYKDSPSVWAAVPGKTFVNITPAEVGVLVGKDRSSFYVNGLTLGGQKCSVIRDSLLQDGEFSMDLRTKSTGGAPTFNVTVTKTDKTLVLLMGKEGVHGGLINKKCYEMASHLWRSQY

[5] = molecular target: profilin-1 M114T (ALS-associated variant) (UniProt P07737 1-140, M114T)
Chain of profilin-1 M114T (ALS-associated variant) (P07737 whole entry M114T): as the sequence (P07737 whole entry R136W) above, with M114T, W136R counted along it

[6] = molecular target: profilin-1 C71G (ALS-associated variant) (UniProt P07737 1-140, C71G)
Chain of profilin-1 C71G (ALS-associated variant) (P07737 whole entry C71G): as the sequence (P07737 whole entry R136W) above, with C71G, W136R counted along it

profilin-1 (wild-type) = profilin-1 (wild-type) (UniProt P07737 1-140)
Chain of profilin-1 (wild-type) (UniProt P07737 1-140) (P07737 whole entry): as the sequence (P07737 whole entry R136W) above, with W136R counted along it

[7] = molecular target: profilin-1 H120E (actin-binding impaired control) (UniProt P07737 1-140, H120E)
Chain of profilin-1 H120E (actin-binding impaired control) (P07737 whole entry H120E): as the sequence (P07737 whole entry R136W) above, with H120E, W136R counted along it

[8] = molecular target: profilin-1 E117G (ALS-associated variant) (UniProt P07737 1-140, E117G)
Chain of profilin-1 E117G (ALS-associated variant) (P07737 whole entry E117G): as the sequence (P07737 whole entry R136W) above, with E117G, W136R counted along it

[9] = molecular target: profilin-1 A20T (ALS-associated variant) (UniProt P07737 1-140, A20T)
Chain of profilin-1 A20T (ALS-associated variant) (P07737 whole entry A20T): as the sequence (P07737 whole entry R136W) above, with A20T, W136R counted along it

[10] = molecular target: profilin-1 Q139L (ALS-associated variant) (UniProt P07737 1-140, Q139L)
Chain of profilin-1 Q139L (ALS-associated variant) (P07737 whole entry Q139L): as the sequence (P07737 whole entry R136W) above, with W136R, Q139L counted along it

Chain of profilin-1 (wild-type) (from UniProt P07737 1-140) (natural protein; other documents disagree on this pair) (P07737 whole entry): as the sequence (P07737 whole entry R136W) above, with W136R counted along it
Chain of profilin-1 G118V (ALS-associated variant) (P07737 whole entry G118V): as the sequence (P07737 whole entry R136W) above, with G118V, W136R counted along it
Chain of profilin-1 T109M (ALS-associated variant) (P07737 whole entry T109M): as the sequence (P07737 whole entry R136W) above, with T109M, W136R counted along it

Kd [1] [nM]	binding result [2]	Kd [3] [nM]	binding result [4]	Kd [5] [nM]	binding result [6]	Kd (profilin-1 (wild-type)) [nM]	binding result [7]	binding result [8]	Kd [9] [nM]	Kd [10] [nM]	Molecule
99.6											profilin-1 (wild-type) (from UniProt P07737 1-140) (natural protein; other documents disagree on this pair)
3720											profilin-1 R88E (actin-binding impaired control) (from UniProt P07737 1-140) (natural protein)
	binds	2090	binds	2040	binds	2710	binds	binds	1650	3470	IPPPPPLPGVASIPPPPPLPG (also: FITC, position not given here) [FITC-mDia1-derived poly-L-proline (PLP) peptide]
